Experiments:
Assay in all cases: cell-based or functional assay
[1] = target: T1, IL-18 receptors on HEK-Blue IL-18 reporter cells (UniProt Q13478 19-541; O95256 20-599, limits assumed)
T1 sequence (looked up) 1: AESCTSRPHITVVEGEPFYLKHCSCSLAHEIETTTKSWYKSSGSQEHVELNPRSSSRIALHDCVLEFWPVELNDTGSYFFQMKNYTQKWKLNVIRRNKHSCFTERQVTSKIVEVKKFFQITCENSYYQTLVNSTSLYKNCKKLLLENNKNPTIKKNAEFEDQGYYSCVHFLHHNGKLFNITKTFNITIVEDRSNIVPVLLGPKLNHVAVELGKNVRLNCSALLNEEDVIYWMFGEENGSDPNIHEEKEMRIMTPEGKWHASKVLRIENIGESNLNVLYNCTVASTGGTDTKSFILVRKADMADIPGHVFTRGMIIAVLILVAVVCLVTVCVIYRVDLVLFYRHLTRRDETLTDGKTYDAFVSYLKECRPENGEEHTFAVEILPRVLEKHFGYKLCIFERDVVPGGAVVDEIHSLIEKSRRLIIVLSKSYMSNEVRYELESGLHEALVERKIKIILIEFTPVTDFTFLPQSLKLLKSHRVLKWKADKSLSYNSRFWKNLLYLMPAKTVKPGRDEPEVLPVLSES
T1 sequence (looked up) 2: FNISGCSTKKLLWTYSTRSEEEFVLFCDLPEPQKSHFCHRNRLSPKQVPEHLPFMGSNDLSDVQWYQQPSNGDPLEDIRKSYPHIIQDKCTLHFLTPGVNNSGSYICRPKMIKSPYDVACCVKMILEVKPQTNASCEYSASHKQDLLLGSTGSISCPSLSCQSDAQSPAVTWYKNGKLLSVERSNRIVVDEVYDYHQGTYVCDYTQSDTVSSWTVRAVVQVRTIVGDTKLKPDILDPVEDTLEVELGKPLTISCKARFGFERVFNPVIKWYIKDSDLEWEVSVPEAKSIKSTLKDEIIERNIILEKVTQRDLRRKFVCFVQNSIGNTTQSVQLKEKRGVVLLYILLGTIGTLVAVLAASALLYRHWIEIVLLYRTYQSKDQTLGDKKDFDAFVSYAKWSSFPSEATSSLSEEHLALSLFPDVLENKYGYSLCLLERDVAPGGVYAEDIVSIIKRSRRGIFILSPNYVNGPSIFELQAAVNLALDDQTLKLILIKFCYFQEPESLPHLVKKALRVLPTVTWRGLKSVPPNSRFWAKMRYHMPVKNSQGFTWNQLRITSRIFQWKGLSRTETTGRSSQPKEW

[2] = target: T2, IL-18 binding protein (IL-18BP) (UniProt O95998 31-194)
T2 sequence (looked up): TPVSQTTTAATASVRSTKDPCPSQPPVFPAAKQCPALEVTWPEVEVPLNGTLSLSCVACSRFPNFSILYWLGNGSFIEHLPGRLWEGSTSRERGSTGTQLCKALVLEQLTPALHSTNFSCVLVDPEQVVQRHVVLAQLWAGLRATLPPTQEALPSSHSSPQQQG

[3] = target: T3, interleukin 18 binding protein (IL-18BP) (UniProt O95998 31-194)
T3 sequence (looked up): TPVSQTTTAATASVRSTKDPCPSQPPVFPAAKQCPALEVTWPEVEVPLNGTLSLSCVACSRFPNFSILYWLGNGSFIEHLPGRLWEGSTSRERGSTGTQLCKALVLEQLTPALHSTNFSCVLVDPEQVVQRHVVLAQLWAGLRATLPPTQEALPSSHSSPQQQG

[4] = target: T4, IL-18 receptors on HEK-Blue IL-18 reporter cells (UniProt Q13478 19-541; O95256 20-599, limits assumed); remark: listed apart in the source
T4 sequence (looked up) 1: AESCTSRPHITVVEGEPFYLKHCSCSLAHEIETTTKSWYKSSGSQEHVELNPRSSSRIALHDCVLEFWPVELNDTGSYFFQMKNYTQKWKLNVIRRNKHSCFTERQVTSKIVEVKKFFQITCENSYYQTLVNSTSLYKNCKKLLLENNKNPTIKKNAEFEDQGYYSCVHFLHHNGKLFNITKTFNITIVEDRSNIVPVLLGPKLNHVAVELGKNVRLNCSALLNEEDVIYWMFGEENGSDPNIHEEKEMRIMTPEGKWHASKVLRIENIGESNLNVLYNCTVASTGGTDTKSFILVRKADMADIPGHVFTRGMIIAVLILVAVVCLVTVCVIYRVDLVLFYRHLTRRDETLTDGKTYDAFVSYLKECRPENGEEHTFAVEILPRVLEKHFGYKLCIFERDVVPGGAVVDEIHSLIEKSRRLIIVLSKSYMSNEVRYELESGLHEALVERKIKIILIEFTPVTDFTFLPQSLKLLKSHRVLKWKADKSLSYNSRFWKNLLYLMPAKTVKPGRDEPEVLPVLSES
T4 sequence (looked up) 2: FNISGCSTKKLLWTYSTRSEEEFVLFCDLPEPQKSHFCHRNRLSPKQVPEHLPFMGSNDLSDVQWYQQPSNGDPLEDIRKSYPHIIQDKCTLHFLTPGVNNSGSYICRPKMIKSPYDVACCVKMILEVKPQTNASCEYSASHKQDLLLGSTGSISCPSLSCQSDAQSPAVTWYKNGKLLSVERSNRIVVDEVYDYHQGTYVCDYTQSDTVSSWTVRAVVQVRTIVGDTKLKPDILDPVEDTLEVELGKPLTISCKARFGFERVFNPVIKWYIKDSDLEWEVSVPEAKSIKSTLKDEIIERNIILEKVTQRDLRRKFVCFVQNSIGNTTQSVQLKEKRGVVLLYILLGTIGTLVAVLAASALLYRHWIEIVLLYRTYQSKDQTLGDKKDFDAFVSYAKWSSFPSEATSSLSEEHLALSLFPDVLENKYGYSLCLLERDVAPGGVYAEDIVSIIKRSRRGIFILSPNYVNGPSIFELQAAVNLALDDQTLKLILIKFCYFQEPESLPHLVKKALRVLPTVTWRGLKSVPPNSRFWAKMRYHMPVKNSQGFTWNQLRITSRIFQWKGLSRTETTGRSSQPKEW

| Binder | Activity, No BP, DF-100000 [1] | Activity, No BP, DF-500000 [1] | Activity, No BP, DF-2500000 [1] | Activity, +100 nM BP, DF-1000002 [2] | Activity, +100 nM BP, DF-5000003 [2] | Activity, +100 nM BP, DF-25000004 [2] | Ratio (-BP/+BP), DF-1000005 [2] | Ratio (-BP/+BP), DF-5000006 [2] | Ratio (-BP/+BP), DF-25000007 [2] | HEK-Blue activity, +100 nM BP, DF-10000 [3] | HEK-Blue activity, +100 nM BP, DF-100,000 [3] | HEK-Blue activity, +100 nM BP, DF-1,000,000 [3] | Ratio (-BP/+BP), DF-10000 [3] | Ratio (-BP/+BP), DF-100,000 [3] | Ratio (-BP/+BP), DF-1,000,000 [3] | HEK-Blue activity, No BP, DF-10000 [4] | HEK-Blue activity, No BP, DF-100,000 [4] | HEK-Blue activity, No BP, DF-1,000,000 [4] |
| --- | --- | --- | --- | --- | --- | --- | --- | --- | --- | --- | --- | --- | --- | --- | --- | --- | --- | --- |
| IL-18 variant G3Q, E6H, S7Y, D23A, R27S, D54S, S55R, T63F, N91F, R104Q (ligand) YFQKLHYKLSVIRNLNDQVLFIAQGNSPLFEDMTDSDMRDNAPRTIFIISMYKSRQPRGMAVFISVKSEKISTLSSENKIISFKEMNPPDFIKDTKSDIIFFQQSVPGHDNKMQFESSSYEGYFLASEKERDLFKLILKKEDELGDRSIMFTVQNED | 0.08 | 0.08 | 0.07 | 0.07 | 0.08 | 0.07 | 1.12 | 1.01 | 1.04 |  |  |  |  |  |  |  |  |  |
| IL-18 variant T34M, S36T, D37E, D40T, N41M, K53T, S55W (ligand) YFGKLESKLSVIRNLNDQVLFIDQGNRPLFEDMMDTEMRTMAPRTIFIISMYTDWQPRGMAVTISVKSEKISTLSSENKIISFKEMNPPDNIKDTKSDIIFFQRSVPGHDNKMQFESSSYEGYFLASEKERDLFKLILKKEDELGDRSIMFTVQNED |  |  |  |  |  |  |  |  |  | 0.14 | 0.12 | 0.12 | 2.13 | 1.79 | 1.63 | 0.29 | 0.21 | 0.19 |
| IL-18 variant G3P, E6D, K53T, D54N, T63A, N91T, R104P (ligand) YFPKLDSKLSVIRNLNDQVLFIDQGNRPLFEDMTDSDMRDNAPRTIFIISMYTNSQPRGMAVAISVKSEKISTLSSENKIISFKEMNPPDTIKDTKSDIIFFQPSVPGHDNKMQFESSSYEGYFLASEKERDLFKLILKKEDELGDRSIMFTVQNED | 0.07 | 0.07 | 0.07 | 0.07 | 0.08 | 0.07 | 0.95 | 0.92 | 1.01 |  |  |  |  |  |  |  |  |  |
| IL-18 variant D23G, K53Y, S55Y (ligand) YFGKLESKLSVIRNLNDQVLFIGQGNRPLFEDMTDSDMRDNAPRTIFIISMYYDYQPRGMAVTISVKSEKISTLSSENKIISFKEMNPPDNIKDTKSDIIFFQRSVPGHDNKMQFESSSYEGYFLASEKERDLFKLILKKEDELGDRSIMFTVQNED |  |  |  |  |  |  |  |  |  | 0.11 | 0.1 | 0.1 | 2.29 | 1.09 | 1.13 | 0.25 | 0.1 | 0.11 |
| IL-18 variant G3L, E6Q, T63H, N91M, R104H (ligand) YFLKLQSKLSVIRNLNDQVLFIDQGNRPLFEDMTDSDMRDNAPRTIFIISMYKDSQPRGMAVHISVKSEKISTLSSENKIISFKEMNPPDMIKDTKSDIIFFQHSVPGHDNKMQFESSSYEGYFLASEKERDLFKLILKKEDELGDRSIMFTVQNED | 0.16 | 0.09 | 0.11 | 0.08 | 0.07 | 0.07 | 2.02 | 1.16 | 1.47 |  |  |  |  |  |  |  |  |  |
| IL-18 variant G3P, E6S, K53N, D54Y, S55P, T63I, N91K, R104H (ligand) YFPKLSSKLSVIRNLNDQVLFIDQGNRPLFEDMTDSDMRDNAPRTIFIISMYNYPQPRGMAVIISVKSEKISTLSSENKIISFKEMNPPDKIKDTKSDIIFFQHSVPGHDNKMQFESSSYEGYFLASEKERDLFKLILKKEDELGDRSIMFTVQNED | 0.07 | 0.07 | 0.07 | 0.07 | 0.07 | 0.07 | 1.03 | 0.94 | 0.95 |  |  |  |  |  |  |  |  |  |
| IL-18 variant G3L, E6Q, T63S, N91L, R104P (ligand) YFLKLQSKLSVIRNLNDQVLFIDQGNRPLFEDMTDSDMRDNAPRTIFIISMYKDSQPRGMAVSISVKSEKISTLSSENKIISFKEMNPPDLIKDTKSDIIFFQPSVPGHDNKMQFESSSYEGYFLASEKERDLFKLILKKEDELGDRSIMFTVQNED | 0.15 | 0.09 | 0.1 | 0.1 | 0.08 | 0.07 | 1.44 | 1.11 | 1.34 |  |  |  |  |  |  |  |  |  |
| IL-18 variant E6T, D54P, S55K, R104S (ligand) YFGKLTSKLSVIRNLNDQVLFIDQGNRPLFEDMTDSDMRDNAPRTIFIISMYKPKQPRGMAVTISVKSEKISTLSSENKIISFKEMNPPDNIKDTKSDIIFFQSSVPGHDNKMQFESSSYEGYFLASEKERDLFKLILKKEDELGDRSIMFTVQNED | 0.17 | 0.09 | 0.1 | 0.18 | 0.09 | 0.08 | 0.98 | 0.99 | 1.3 |  |  |  |  |  |  |  |  |  |
| IL-18 variant G3P, E6I, K53N, D54W, S55P, T63S, N91L, R104Q (ligand) YFPKLISKLSVIRNLNDQVLFIDQGNRPLFEDMTDSDMRDNAPRTIFIISMYNWPQPRGMAVSISVKSEKISTLSSENKIISFKEMNPPDLIKDTKSDIIFFQQSVPGHDNKMQFESSSYEGYFLASEKERDLFKLILKKEDELGDRSIMFTVQNED | 0.07 | 0.08 | 0.07 | 0.08 | 0.09 | 0.07 | 0.91 | 0.91 | 0.97 |  |  |  |  |  |  |  |  |  |
| IL-18 variant G3S, E6H, K53Y, D54P, S55Y, T63S, N91A, R104S (ligand) YFSKLHSKLSVIRNLNDQVLFIDQGNRPLFEDMTDSDMRDNAPRTIFIISMYYPYQPRGMAVSISVKSEKISTLSSENKIISFKEMNPPDAIKDTKSDIIFFQSSVPGHDNKMQFESSSYEGYFLASEKERDLFKLILKKEDELGDRSIMFTVQNED | 0.09 | 0.09 | 0.07 | 0.07 | 0.08 | 0.08 | 1.18 | 1.1 | 0.95 |  |  |  |  |  |  |  |  |  |

— US20240182536A1 (MURAL ONCOLOGY, published 2024)
